Assay results reported in patent US20230279128A1 (SYNTHEKINE, published 2023).

Assays:
[1] = biological target: T1, extracellular domain of hIFNgR2 (human, UniProt P38484 28-247); assay: flow cytometry
T1 construct: also called hIFNgR2 ECD; hIFNgR2-ECD
T1 sequence: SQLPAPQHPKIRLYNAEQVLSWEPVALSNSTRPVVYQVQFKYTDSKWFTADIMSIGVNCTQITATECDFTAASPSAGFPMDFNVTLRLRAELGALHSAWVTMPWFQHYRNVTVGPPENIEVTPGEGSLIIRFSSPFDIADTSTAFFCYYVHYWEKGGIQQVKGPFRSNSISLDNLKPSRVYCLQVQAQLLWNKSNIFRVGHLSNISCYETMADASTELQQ

[2] = biological target: T2, extracellular domain of mIFNgR2 (mouse); assay: flow cytometry, cross-reactivity
T2 construct: also called mIFNgR2 ECD; mouse IFNgR2 extracellular domain
T2 chain: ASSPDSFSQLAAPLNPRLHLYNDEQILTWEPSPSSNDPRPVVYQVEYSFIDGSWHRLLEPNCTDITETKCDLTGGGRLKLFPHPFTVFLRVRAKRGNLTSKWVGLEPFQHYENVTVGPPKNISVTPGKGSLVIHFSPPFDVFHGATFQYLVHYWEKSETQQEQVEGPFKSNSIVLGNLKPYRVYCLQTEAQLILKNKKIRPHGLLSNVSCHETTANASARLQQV

[3] = biological target: T1, extracellular domain of hIFNgR2; assay: phage biopanning and periplasmic extract ELISA (PE-ELISA)
Procedure: Upon completion of the biopanning of Example 3, three 96-well plates of individual phage clones were isolated in order to perform periplasmic extract ELISA (PE-ELISA) on IFNgR2 coated plates to identify positive VHH binders that selectively bound IFNgR2. A 96-well plate was coated with IFNgR2 and PBS under the same conditions. Next, wells were blocked at 37° C. for 1 h. Then, 100 μl of extracted antibodies was added to each well and incubated for 1 h. Subsequently, 100 μl of anti-tag polyclonal antibody conjugated to HRP was added to each well and incubated at 37° C. for 1 h. Plates were developed with TMB substrate. The reaction was stopped by the addition of H2SO4. Absorbance at 450 nm was read on a microtiter plate reader. Antibodies with absorbance of the antigen-coated well at least threefold greater than PBS-coated control were considered to provide specific binding to IFNgR2. Positive clones were sequenced, and sequences analyzed to identify unique clonotypes

B1: DR930 (VHH)
VHH: EVQLVESGGGLVQAGGSLRLSCTVSGRTFSSYAVAWFRQAPGNVRELAAALSRGGGSAYYTDSVKGRFTISRDNAKNTVYLQMNSLKPEDTAVYYCAARNYDGTYYQENQYNYWGQGTQVTVSS
B1: binds [1]; binds [2].

B2: DR934 (VHH)
VHH: QVQLVESGGGLVQAGGSLRLSCAASGRSFANYAMGWFRQAPGKERETVAAISRGGGSTWYADSVKGRFTISKDNAKNTVYLQMNSLKPEDTAIYYCAARSYSGSYTYSFGEYDYWGQGTQVTVSS
B2: binds [1]; binds [2].

B3: DR953 (VHH)
VHH: QVQLVESGGGLVQAGDSLRLSCAASGPTFSTYAMAWFRQAPGKEREFVAAITQSGRTTYYEDSVKGRFTISKDNAKNTLYLQMNSLQPEDTAVYYCAARDLWSDSPDDWRIYSFWGQGTQVTVSS
B3: binds [2]; binds [3].

B4: DR946 (VHH)
VHH: QVQLVESGGGLVQPGESLRLSCAASGPFTRYAMGWFRQAPGKEREFVAAISWSSGNTYYVDSVKGRFTISRDNAKNTMYLQMNSLKPEDTAVYYCAANEVATMSGPDDYWGQGTQVTVSS
B4: binds [2]; binds [3].

B5: DR956 (VHH)
VHH: EVQLVESGGGLVQAGGSLRLSCAASGRTFSSLAMAWFRQAPGKEREFVAATTILGGSADYGDPVKGRFTISRDNAKNTVYLQMNSLKPEDTAVYYCTGRRPAPSDNYWSPASYAYWGQGTQVTVSS
B5: binds [2]; binds [3].

B6: DR929 (VHH)
VHH: QVQLVESGGGLVQAGGSLRLSCVASGRTFSSYAMGWFRQTPGKEREFVSAISRGGGSTDYADSVKGRFTISRDNAKNTVYLQMNNLKSEDTAVYYCALRAYSGRYYQFLEYDYWGQGTQVTVSS
B6: binds [2]; binds [3].

B7: DR948 (VHH)
VHH: QVQLVESGGGLVQAGDSLRLSCVASGSIDSSYYVSWFRQAPGKERDLVAAINWGDSRTAYADSVKGRFTISRDNAKNTVYLQMHSLRPNDTAVYYCASRIGLGGPVVAAPTRYPYWGQGTLVTVSS
B7: binds [2]; binds [3].

B8: DR932 (VHH)
VHH: QVQLVESGGGLVQAGGFLRLSCAASGRTFSYTTIGWFRQAPGKEREFVAVISAGGGSRDYADALKGRFTISRDNAKKMVYLQMNNLKPEDTAVYYCAVRRNTDTYTTTGDYDYWGQGTQVTVSS
B8: binds [1]; binds [2].

B9: DR931 (VHH)
VHH: QVQLVESGGGLVQAGGSLLLSCAASGRTFSTYAMGWFRQAPGKERMFVAAISVNGGSTYYADSVTGRFTISRDNAKNTMYLQMNNLKPGDTAVYYCAARRPYPGSDFLTWASYDYRGQGTLVTVSS
B9: binds [1]; binds [2].

B10: DR947 (VHH)
VHH: QVQLVESGGGLVQAGGSLRLSCAASGGSFGRYTMGWYRQAPGKEREFVAVISWSGTNTYYADSVKGRFTISRDNAKNTMYLQMNDLKPEDTAVYYCAARETYYSHWDERMEYDYWGQGTQVTVSS
B10: binds [2]; binds [3].

B11: DR957 (VHH)
VHH: QVQLVESGGGLVQAGGSLRLSCAPSGRTFSSYAMAWFRQPPGKEREFVAAITVSGASTYYADSVKGRFTISRDNAKNSMYLQMNSLKPEDTAVYYCAAGGPGTIFPDYDYWGQGTQVTVSS
B11: binds [2]; binds [3].

B12: DR954 (VHH)
VHH: QVQLVESGGGLVQAGGSLRLSCAAARRTLHNFAMAWFRQAPGKEREFVAAISKGGGSADYADSVKGRFTISRDNAKNTVYLQMNSLKPEDTAVYYCAANDLASYSDSSYTSTSRYDYWGQGTQVTVSS
B12: binds [2]; binds [3].

B13: DR958 (VHH)
VHH: QVQLVESGGGLVQAGDSLTLSCTASGRTFSGYNMGWFRQAPGKERDFVAAINWIGGATYYADSVKGRFTISRDNAKNTVYLQMNSLKPEDTAVYYCHRYSEKFYSGKDYYTRDYDYWGQGTQVTVSS
B13: binds [2]; binds [3].

B14: DR949 (VHH)
VHH: QVQLVESGGGLVQAGGSLRLSCAASESILRFNVMSWLRQAPGKQRELVAVITSGGSTNYADSVKGRFTISRDNAKNTVYLQMNSLKPEDTAVYYCAADESGQYYWGQGTQVTVSS
B14: binds [2]; binds [3].

B15: DR950 (VHH)
VHH: QVQLVESGGGLVQAGGSLRLSCAASGLTTSSAALAWFRQAPGKERELDPTITSGGGSTYYADSVKGRFTISKDNAKNTLYLQMSSLKPEDTAVYYCAARFYSTTYYYREHEYSDWGQGTQVTVSS
B15: binds [2]; binds [3].

B16: DR933 (VHH)
VHH: QVQLVESGGGLVQPGDSLRLSCVASGGTISSLAMGWFRQAPGKEREFVAAISWSGRSTYYVDSVKGRFTISTDNAKNTVYLQMNSLKPEDTAVYYCVAGEDGHSEYDYWGQGTQVTVSS
B16: binds [1]; binds [2].

B17: DR955 (VHH)
VHH: QVQLVESGGGLVQTGGSLRLSCAASGRTFSSYAMAWFRQAPGKEREFVAAISILGGSADYEDSVQGRFTISRDNAKNTMYLQMNSLKPEDTAVYYCAARRPAPSDSYWSSTSYAYWGQGTLVTVSS
B17: binds [2]; binds [3].

B18: DR952 (VHH)
VHH: QVQLVESGGGLVQAGGFLRLSCAASGRTFSSLAMAWFRQAPGKEREFVAAISRSGGSTDYADSVKGRFTISRDNAKSTLYLQMSSLKPEDTAVYYCAARDYSTLQYYNEYEYSDWGQGTLVTVSS
B18: binds [2]; binds [3].

B19: DR935 (VHH)
VHH: QVQLVESGGGLVQAGGSLRLSCAASGRAFSTYALGWFRQAPGKEREFIAAISRGGGSTDYADSVKGRFTISRDNAKSTVYLQMNSLKPEDTAVYYCAARSYSSSYYYSQYEYDYWGQGTQVTVSS
B19: binds [1]; binds [2].

B20: DR951 (VHH)
VHH: QVQLVESGGGLVQAGGSLRLSCAASGRTFGTSFGSLSMGWFRQAPGKEREFVAAISRNIGRTYYADSVKDRFTISRDNAKNTASLQMNSLEPEDTAVYNCAATNSYDDLRRSYAYDYWGQGTQVTVSS
B20: binds [2]; binds [3].
